Sequences and labels used below:
B1: 2G1 antibody (antibody, V domains shown)
VH: EVQLQESGPGLVAPSQSLSITCTVSGFSLTSYDISWIRQPPGKGLEWLGVIWTGGGTNYNSAFMSRLSISKDNSKSQVFLKMNSLQTDDTAIYYCVPHYYGYAMDYWGQGTSVTVSS
VL: DIVLTQSPSSLSASLGGKVTITCKASQDINKYIAWYQHKPGKGPRLLIHYTSTLQPGIPSRFSGSGSGRDYSFSISNLEPEDIATYYCLQYDNLLTFGAGTKLELK
notes: Monoclonal antibody from a hybridoma, detected in FACS with goat anti-mouse IgG
B2: 1C2 antibody (antibody, V domains shown)
VH: QVQLQQPGAELVRPGASVKLSCKASGYTFTSYWMNWVKQRPGQGLEWIGMIDPSDSETHYNQMFKDKATLTVDKSSSTAYMQLSSLTSEDSAVYYCARWGNYDYDVWAMDYWGQGTSVTVSS
VL: DVLMTQTPLSLPVSLGDQASISCRSSQNIVHLNGNTFLEWFLQKPGQSPKLLIYKVSNRFSGVPDRFSGSGSGTDFTLKISRVEAEDLGVYYCFQGSHVPYTFGGGTKLEIK
notes: Monoclonal antibody from a hybridoma (fusion with mouse myeloma cells), detected in FACS with goat anti-mouse IgG
B3: 6B3 antibody (antibody, V domains shown)
VH: EVQLQQSGPELVKPGASVKISCKASGYTFTDYNMHWVKQSHGKSLEWIGYIYPYNGGTGYKQKFKSKATLTVDNSSSTAYMELRSLTSEDSAVYYCARLYYYGRTSYWGQGTTLTVSS
VL: DIVMTQSQKFMSTSVGDRVSVTCKASQNVGTYVAWYQQKPGQSPKALIYSASYRYSGVPDRFTGSGSGTDFTLTISIVQSEDLAEYFCHQYDSYPYTFGGGTKLEIK
notes: as for B1
B4: 2A9 antibody (antibody, V domains shown)
VH: EVQLEESGAELVKPGASVKMSCKAFGYTFTTYPIEWMKQNHGKSLEWIGNFHPYNDDTKYNEKFKGKAKLTVEKSSSTVYLELSRLTSDDSAVYYCARGDYYVSSWYFDVWGAGTTVTVSS
VL: B3 VL with Y32N, I77N, H89Q, D92N, Y96L, G100S
notes: as for B1
B5: 9E9 antibody (antibody, V domains shown)
VH: EVQLEESGAELVRPGSSVKISCKASGYAFSIYWMNWVKQRPGQGLEWIGQIYPGDGDTNYNGKFKGKATLTADKSSSTAYMQLSSLTSEDSAVYFCARRGITPWFAYWGQGTLVTVSA
VL: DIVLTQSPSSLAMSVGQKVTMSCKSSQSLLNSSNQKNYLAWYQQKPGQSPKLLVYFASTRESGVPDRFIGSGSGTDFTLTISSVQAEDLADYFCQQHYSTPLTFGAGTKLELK
notes: as for B1

Changes are numbered by the printed parent chain.

The assay deals with T1, CD22-His tag (CD22 extracellular domain; Acrobiosystems Inc.) (UniProt P20273 20-687, limits assumed).
T1 construct: extracellular domain; Bought reagent coated at 100 ng/well; also called CD22 peptide; not shown: His tag
T1 sequence (looked up): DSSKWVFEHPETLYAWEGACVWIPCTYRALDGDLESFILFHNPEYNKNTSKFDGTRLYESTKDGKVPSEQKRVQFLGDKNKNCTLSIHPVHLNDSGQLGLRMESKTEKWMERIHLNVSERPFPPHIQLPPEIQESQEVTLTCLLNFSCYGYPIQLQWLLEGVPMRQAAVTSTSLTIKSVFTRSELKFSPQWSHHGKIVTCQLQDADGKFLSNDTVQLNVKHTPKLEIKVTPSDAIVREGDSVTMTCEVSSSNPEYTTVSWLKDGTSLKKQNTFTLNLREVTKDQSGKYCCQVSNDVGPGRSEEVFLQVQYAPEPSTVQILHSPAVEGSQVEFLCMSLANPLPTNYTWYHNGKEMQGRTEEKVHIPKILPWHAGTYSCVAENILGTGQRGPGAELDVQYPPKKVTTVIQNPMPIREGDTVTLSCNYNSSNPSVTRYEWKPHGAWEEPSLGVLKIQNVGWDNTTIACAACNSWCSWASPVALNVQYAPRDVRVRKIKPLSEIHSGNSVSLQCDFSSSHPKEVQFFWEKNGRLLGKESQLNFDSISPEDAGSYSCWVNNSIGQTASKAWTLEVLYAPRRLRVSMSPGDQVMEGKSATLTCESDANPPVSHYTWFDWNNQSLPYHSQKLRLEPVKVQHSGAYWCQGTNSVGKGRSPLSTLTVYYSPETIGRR
The assay can be described thus: ELISA, CD22-His tag coated at 100 ng/well, primary antibody 0.4 ug/ml. Here is the method: 1C2, 9E9, 2A9, 2G1 and 6B3 antibodies were treated in each well, and then reacted at room temperature for 2 hours, and then washed 3 times with 1 X PBST. Secondary antibody ([…], 1:10,000) was treated and reacted at room temperature for 30 minutes, washed 3 times with 1 X PBST, and then treated with TMB for color development and reacted at room temperature for 5 minutes. Finally, the reaction was terminated by treatment with a stop solution of 1N H₂SO₄, and then the absorbance was measured at 450 nm.
(An ELISA detects its analyte on a solid surface through an enzyme-linked reagent.)
In the case of B1, the OD450 measurements is 2.54 absorbance at 450 nm. As for B2, the OD450 measurements amounted to 2.43 absorbance at 450 nm. To B3 belongs 1.79 absorbance at 450 nm; to B4, 2.93 absorbance at 450 nm. Then B5, with 1.76 absorbance at 450 nm.

The values above are taken from patent publication US20230212286A1 (INNOBATION BIO, published 2023).
